From the supplement of paper PMC9112550, “Optimization of the antimicrobial peptide Bac7 by deep mutational scanning” (BMC Biology, 2022)

System: Escherichia coli TOP10
Test: shrunken log2 fold change of peptide-encoding DNA abundance (4.5 h post-induction vs induction); higher = less antimicrobial activity (less host growth inhibition)
Conditions: time post-induction: 4.5 h; library: site-saturation at positions 5, 18, 19, 20
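Also: peptides expressed intracellularly from a pBAD plasmid library in pooled LB shake-flask culture, induced with 0.3% L-arabinose, DNA abundance read by NGS, three biological replicates, DESeq2 with apeglm shrinkage.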

| Sequence | shrunken log2 fold change |
| --- | --- |
| RRIRHRPPRLPRPRPRPHGLPRP | 0.15 |
| RRIRERPPRLPRPRPRPNTGPRP | -0.385 |
| RRIRTRPPRLPRPRPRPTHVPRP | 0.122 |
| RRIRFRPPRLPRPRPRPSDTPRP | -0.308 |
| RRIRQRPPRLPRPRPRPRMYPRP | -0.2 |
| RRIRKRPPRLPRPRPRPIYEPRP | -0.0432 |
| RRIRFRPPRLPRPRPRPAVAPRP | 0.196 |
| RRIRERPPRLPRPRPRPVCQPRP | 0.121 |
| RRIRWRPPRLPRPRPRPCHEPRP | -0.00847 |
| RRIRFRPPRLPRPRPRPLIHPRP | -0.891 |
| RRIRERPPRLPRPRPRPFNTPRP | -0.124 |
| RRIRPRPPRLPRPRPRPRAMPRP | 0.292 |
| RRIRDRPPRLPRPRPRPEYRPRP | -0.0165 |
| RRIRIRPPRLPRPRPRPDCVPRP | -0.0493 |
| RRIRNRPPRLPRPRPRPLRGPRP | 0.654 |
| RRIRHRPPRLPRPRPRPHATPRP | 0.0228 |
| RRIRERPPRLPRPRPRPIFMPRP | -0.1 |
| RRIRKRPPRLPRPRPRPLRHPRP | 0.35 |
| RRIRDRPPRLPRPRPRPLRHPRP | 0.358 |
| RRIRTRPPRLPRPRPRPRTHPRP | -0.0753 |

| Sequence | shrunken log2 fold change |
| --- | --- |
| RRIRGRPPRLPRPRPRPCMMPRP | 0.145 |
| RRIRTRPPRLPRPRPRPRRWPRP | -0.0464 |
| RRIRTRPPRLPRPRPRPPESPRP | -0.0298 |
| RRIRFRPPRLPRPRPRPYWLPRP | -0.234 |
| RRIRKRPPRLPRPRPRPGMVPRP | 0.8 |
| RRIRIRPPRLPRPRPRPRAFPRP | -0.0671 |
| RRIRNRPPRLPRPRPRPQIVPRP | -0.0891 |
| RRIRQRPPRLPRPRPRPVLRPRP | -0.027 |
| RRIRRRPPRLPRPRPRPNHFPRP | -0.0507 |
| RRIRYRPPRLPRPRPRPNAVPRP | -0.00911 |
| RRIRPRPPRLPRPRPRPEATPRP | 0.33 |
| RRIRWRPPRLPRPRPRPGENPRP | -0.0316 |
| RRIRPRPPRLPRPRPRPVTPPRP | 0.125 |
| RRIRFRPPRLPRPRPRPYPEPRP | -0.488 |
| RRIRKRPPRLPRPRPRPQKGPRP | -0.0581 |
| RRIRFRPPRLPRPRPRPEPEPRP | 0.864 |
| RRIRWRPPRLPRPRPRPRPFPRP | 0.56 |
| RRIRRRPPRLPRPRPRPELGPRP | 0.809 |
| RRIRDRPPRLPRPRPRPQQKPRP | -0.14 |
| RRIRERPPRLPRPRPRPDSDPRP | -0.0703 |

| Sequence | shrunken log2 fold change |
| --- | --- |
| RRIRGRPPRLPRPRPRPLLIPRP | 0.61 |
| RRIRGRPPRLPRPRPRPIKAPRP | 0.024 |
| RRIRIRPPRLPRPRPRPPILPRP | -0.0859 |
| RRIRTRPPRLPRPRPRPVWLPRP | -0.101 |
| RRIRIRPPRLPRPRPRPTLVPRP | 0.0386 |
| RRIRARPPRLPRPRPRPRIRPRP | 0.322 |
| RRIRTRPPRLPRPRPRPCHIPRP | -0.292 |
| RRIRMRPPRLPRPRPRPTELPRP | 0.172 |
| RRIRNRPPRLPRPRPRPAVQPRP | 0.109 |
| RRIRSRPPRLPRPRPRPYIGPRP | -0.121 |
| RRIRNRPPRLPRPRPRPHTCPRP | 0.0167 |
| RRIRHRPPRLPRPRPRPACRPRP | -0.141 |
| RRIRRRPPRLPRPRPRPHMVPRP | -0.355 |
| RRIRTRPPRLPRPRPRPWCQPRP | -0.134 |
| RRIRLRPPRLPRPRPRPGNNPRP | -0.58 |
| RRIRYRPPRLPRPRPRPVNVPRP | -0.0979 |
| RRIRVRPPRLPRPRPRPIHEPRP | 0.0255 |
| RRIRLRPPRLPRPRPRPVDEPRP | -0.0573 |
| RRIRVRPPRLPRPRPRPHMMPRP | -0.659 |
| RRIRYRPPRLPRPRPRPWTFPRP | -0.225 |
